± gives the uncertainty stated by the source.
Assay: self-splicing fitness, log relative to wild type (ln ratio); higher = more splicing; Tetrahymena group I intron in knt gene, E. coli kanamycin selection, DiMSum; sequences stand for … in CUCUCU…GGAGGGAAAAGUUAUCAGGCAUGCACCUGGUAGCUAGUCUUUAAACCAAUAGAUUGCAUCGGUUUAAAAGGCAAGACCGUCAAAUUGCGGGAAAGGGGUCAACAGCCGUUCAGUACCAAGUCUCAGGGGAAACUUUGAGAUGGCCUUGCAAAGGGUAUGGUAAUAAGCUGACGGACAUGGUCCUAACCACGCAGCCAAGUCCUAAGUCAACAGAUCUUCUGUUGAUAUGGAUGCAGUUCACAGACUAAAUGUCGGUCGGGGAAGAUGUAUUCUUCUCAUAAGAUAUAGUCGGACCUCUCCUUAAUGGGAGCUAGCGGAUGAAGUGAUGCAACACUGGAGCCGCUGGGAACUAAUUUGUAUGCGAAAGUAUAUUGAUUAGUUUUGGAGUACUCGUGGUCG
Outline: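 DiMSum derived fitness as the error-weighted combination of fold changes across replicates, kanamycin versus no kanamycin, normalised to wild type. E. coli BL21(DE3) held the library, which randomised all eight P1ex-region intron nucleotides within the knt kanamycin-resistance gene on pET-22b(+). Six replicate transformations grew overnight at 37°C or 30°C on LB agar with or without 25 μg/mL kanamycin, also containing 100 μg/mL carbenicillin, 50 μM IPTG and 0.2% rhamnose, and pooled colonies were amplicon-sequenced on an Illumina HiSeq 2500.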

Sequence | self-splicing fitness (ln) (30 °C) | self-splicing fitness (ln) (37 °C)
CAAGAGCAAUAUUACGCCCG | -1.84 ± 0.2 | -1.03 ± 0.22
GCCCAGCAAUAUUACGUCCC | -1.49 ± 0.17 | 0.384 ± 0.17
CGAGAGCAAUAUUACGCGAU | -3.7 ± 0.48 | -1.04 ± 0.37
GUGUAGCAAUAUUACGUCAG | -3.06 ± 0.26 | -2.53 ± 0.29
CGGAAGCAAUAUUACGCCAC | -3.64 ± 0.18 | -2.78 ± 0.26
AAGUAGCAAUAUUACGGAAU | -3.66 ± 0.2 | -1.52 ± 0.16
ACUAAGCAAUAUUACGUGCC | -1.22 ± 0.13 | -0.754 ± 0.14
GCAUAGCAAUAUUACGUACU | -0.89 ± 0.07 | -0.056 ± 0.079
CACCAGCAAUAUUACGUCCG | -0.0929 ± 0.051 | 0.19 ± 0.071
CGCAAGCAAUAUUACGGUAG | -0.472 ± 0.053 | -0.388 ± 0.06
GUUCAGCAAUAUUACGAUGU | -0.419 ± 0.075 | 0.31 ± 0.11
GCUGAGCAAUAUUACGACGA | – | -0.876 ± 0.39
AGGAAGCAAUAUUACGCAAA | -1.79 ± 0.14 | -1.23 ± 0.14
CGUAAGCAAUAUUACGUGCC | -2.64 ± 0.23 | -1.67 ± 0.2
CAGUAGCAAUAUUACGACGU | -1.15 ± 0.14 | -0.0577 ± 0.18
GGCUAGCAAUAUUACGGUUA | 0.156 ± 0.084 | 0.606 ± 0.089
UGGCAGCAAUAUUACGGCAA | 0.308 ± 0.22 | 0.661 ± 0.19
ACUAAGCAAUAUUACGUAAU | -1.14 ± 0.073 | -0.739 ± 0.09
UUGAAGCAAUAUUACGUCAU | -1.41 ± 0.056 | -0.306 ± 0.069
ACACAGCAAUAUUACGGGGG | -2.9 ± 0.14 | -2.45 ± 0.15
GAACAGCAAUAUUACGAACG | -1.21 ± 0.1 | -0.566 ± 0.14
AUUUAGCAAUAUUACGCGCA | -0.312 ± 0.13 | -0.00399 ± 0.16
ACAAAGCAAUAUUACGUGAU | -1.51 ± 0.063 | -1.09 ± 0.086
CCCGAGCAAUAUUACGAGAA | -3.69 ± 0.43 | -2.1 ± 0.34

Sequence | self-splicing fitness (ln) (30 °C) | self-splicing fitness (ln) (37 °C)
GACUAGCAAUAUUACGAAUA | -2.54 ± 0.24 | -0.356 ± 0.21
GAGAAGCAAUAUUACGCGUC | -3.46 ± 0.34 | -2.31 ± 0.33
GGCGAGCAAUAUUACGGACG | -0.223 ± 0.1 | -0.489 ± 0.21
CUACAGCAAUAUUACGGAUA | -3.45 ± 0.14 | -3.2 ± 0.16
GGUAAGCAAUAUUACGGUAC | -1.32 ± 0.08 | -0.815 ± 0.13
ACACAGCAAUAUUACGGGCC | -3.37 ± 0.19 | -2.11 ± 0.18
UAUCAGCAAUAUUACGCUGU | -3.25 ± 0.2 | -2.16 ± 0.15
UCGCAGCAAUAUUACGAGAC | -3.18 ± 0.35 | -1.6 ± 0.4
GACAAGCAAUAUUACGAGCC | -1.08 ± 0.18 | -0.366 ± 0.15
GACUAGCAAUAUUACGUAUG | -1.82 ± 0.068 | -1.33 ± 0.091
UACCAGCAAUAUUACGGAAU | -2.32 ± 0.093 | -1.5 ± 0.1
ACUCAGCAAUAUUACGUGUA | -1.39 ± 0.1 | -0.266 ± 0.096
UGUAAGCAAUAUUACGUUAA | -2.04 ± 0.13 | -0.926 ± 0.12
UAAAAGCAAUAUUACGUGGG | -3.67 ± 0.23 | -1.44 ± 0.13
AGAUAGCAAUAUUACGCGUU | -2.34 ± 0.14 | -0.0669 ± 0.13
UAAUAGCAAUAUUACGAAAG | -1.92 ± 0.19 | -2.03 ± 0.31
CGAAAGCAAUAUUACGCGGC | -2.81 ± 0.3 | -2.38 ± 0.31
AUAUAGCAAUAUUACGCUGA | -1.3 ± 0.2 | -1.15 ± 0.24
GCCAAGCAAUAUUACGACCC | -0.14 ± 0.14 | -0.813 ± 0.17
CGCAAGCAAUAUUACGAGAA | – | -2.03 ± 0.42
GAACAGCAAUAUUACGCUAU | -2.43 ± 0.1 | -1.21 ± 0.11
AGCCAGCAAUAUUACGUUAA | -2.44 ± 0.17 | -2.59 ± 0.2
UAAGAGCAAUAUUACGGUUU | -3.48 ± 0.24 | -1.85 ± 0.23
UUUCAGCAAUAUUACGUGCU | -3.47 ± 0.32 | -2 ± 0.24
